The nanobody polyreactivity screen of Harvey et al. (2022)

Assay: yeast display, Sf9 membrane polyspecificity reagent, FACS + sequencing; frameworks hold sequencing errors
Procedure, shortened: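 A nanobody's polyreactivity label depends on the gate it was sorted from. Yeast display cells were stained with 10% biotinylated, detergent-solubilized Sf9 membrane reagent for 1 hour at 4 °C, enriched on streptavidin microbeads and sorted by FACS. The low and high (top ~1%) gates were set on anti-HA fluorescence for expression and streptavidin fluorescence for reagent binding.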

| Sequence | polyreactivity (PSR sort gate) |
| --- | --- |
| QVQLVESGGGLVQAGGSLRISCAPSGRIFNINEMGWYRPARGKEREWVARITTGGRTNYADSVKGRFTISRDNAKNTFYLQMNSLKPADTAVYYCAARTYGQLGDYWGQGTQVTVSS | high polyreactivity |
| QVQLVESGGGLVQAGGSLRISCASSGFTFSQYAMGWYRQAPGKERELVAAISSSGGRTYYADSVKGRFTISRDNAKNTVYLQMKSLKPEDTAFFYCAAPGAQGLGLRGAGLDYWGQGTQVTVSS | high polyreactivity |
| QVQLVESGGGLVQAGGSLRISCDASGSTFVANAMRSYREAPGKERELLAAISRSGGRTYYADSVKGRFTISRDNAKYTVYFQMNSLKPEDTAVYYCAADGYRSPVYANWGMGYWGQGSQVTVSS | high polyreactivity |
| QVQLVESGGGLVQAGGSLRISCDASGYIFGWNSMGWYRQAPGKERELVAAISSSGGNTYYADSVKGRFTISRDNAKNTVYLQMNSLKPEDTAVYYCARSYPYRYDYWGQGTQVTVSS | low polyreactivity |
| QVQLVESGGGLVQAGGSLRISSAASGRIFTPYVMGWYRQAPGKERELVADINLSGDSTSYADSVKGRFTITRDNAKNTVYLQMNSLKPEDTAVYYCNADSYIYVGNDQYDYWGQGTQVTVSS | low polyreactivity |
| QVQLVESGGGLVQAGGSLRISSAASGRTFFTNAKGWYRQAPGKERELVAVITYRGDSTYADSVKGRFTISRDNAKNTVYLQMNSLKPEDTAVYYCNAEFRGGRWFTYDYWGHGTQVTVSS | low polyreactivity |
| QVQLVESGGGLVQAGGSLRISSAAYGRIIYGYAMGWYRQAPGKERELVAAITWRGTSTYYADSVKGRFTISRDNAKNTVYLQMNCLKPEDTAVYYCNAVRSLAYWGQGTQVTVSS | high polyreactivity |
| QVQLVESGGGLVQAGGSLRITCAASGSIFGTNAMGWYRQAPGKERELVAAIDGGSTTYYADCVKGRFTISRDNAKNTVYLQMNSLKPEDTAVYYCAADGTRYLNYEGYAGYEYWGQGTQETVSS | low polyreactivity |
| QVQLVESGGGLVQAGGSLRITCAASGSIFYSNVMGWSRPAPGKERELVARITDAGSTNYADSVKGRFTISRDYAKNTVYLQMYSLKPEDTAVYYCIARLVIYTYDYWGQGTQVTVSS | low polyreactivity |
| QVQLVESGGGLVQAGGSLRITCAASGSNFTYNAMGRYREAPGKERELVAAIDWDGDTTYYADSVKGRFTISRDNAKNTVYLQMNSLKPEDTAVYYCAAEFYSLGKAIYEYWGQGTQVTLSS | high polyreactivity |
| QVQLVESGGGLVQAGGSLRLAVLPPDLPSTLNDMGWYRQAPGKERELVAAITRGGSTNYADSLKGRFTISRDNAKNTVYLQMNSLKPEDSAVYYCAAPYAGWGDGGDYWGQGTQVTVSS | low polyreactivity |
| QVQLVESGGGLVQAGGSLRLAVLPPDLPSTLNDMGWYRQAPGKERELVAAITRGGSTNYADSVKGRFTISRDNAKNTVYLQMNSLKPEDTAVYYCAAPYAGWRDGGDYWGQGTQVTVSS | low polyreactivity |
| QVQLVESGGGLVQAGGSLRLCCAASGIIFYSYAMGWYRQAPGKEREFVAAITNSDGSTYYADSVKGRFTISRDNAKNTVYLQMNSVKPEDTAVYMFYWGQGTQVTVSS | low polyreactivity |
| QVQLVESGGGLVQAGGSLRLCCAASGRIFDYNAMGLYRQAPGKERELVAAINSGGSTYADSVKGRFTISRDNAKNTVYLQMNSLKPEDTAVYYCANSLGQTDWEYDSWGQGTQVTVSS | low polyreactivity |
| QVQLVESGGGLVQAGGSLRLCCAASGSIFLLNAMGWYRQAPGKERELVAAISWGGGSTYYADSVKGRFTISRDNAKNTVYLQMNSLKPEDTAVYYCNASVTLGLEVDYSGQGTQVTVSS | low polyreactivity |
| QVQLVESGGGLVQAGGSLRLICAAAGRIVSYYTMGWYRQAPGKERELVAAISSGGSTNYADSVKGRFTISRDNAKNTVYLQMNSLKPEDTAVYYCAVRCGRRNYDRPAFGYWGQGTQVTVSS | high polyreactivity |
| QVQLVESGGGLVQAGGSLRLICAASGFIFGHYAMGWYRQAPGNERELVAAISTGGDGTYYADSVKGRFTISRDNAKNTVYLQMNSLKPEDTAVYYCAVRHRASGILYYYWGQATQVTVSS | low polyreactivity |
